# Test results as given in publication PMC2674214 (PLoS ONE, 2009).
# B1: AVFluIgG03 (antibody, V domains shown)
# VH: LESGGGLVQPGGSLRVSCTNSGFTFSDYAMSWVRQAPGKGLEWVSAISGNGGSSTYYADSVKGRFTISRDNSKNTMYLQMNSLRAEDTAVYYCVRDDSYDGGGQYGLHNWFDSWGQGTLVTV
# VL: ELTQPPSVSGAPGQRVTISCTGSSSNIGAGYDVHWYQQLPGTAPKLLIYGNSNRPSGVPDRFSGSKSGTSASLAITGLQAEDEADYYCQSYDSSLVVFGGGTKLTVL
# notes: also called rhAb AVFluIgG03; AVFluIg03; source: SF9 cells, purified on a Protein A column
# Target: rHA of clade 1 H5N1 virus A/Viet Nam/1203/04 (Influenza A virus A/Viet Nam/1203/2004 …, UniProt Q5EP31, strain)
# Assay: ELISA
binder,measurement,value
B1,binding result,no binding
